Measured values: article PMC3082741 (Chemistry & biology, 2011)
Where “and” joins values, the source holds several entries; their conditions need not be identical. Identical values can stand only once.

How the values were obtained:
[1] = molecular target: AcrA^S362C modified with biotin-maleimide, the immobilized AcrA (E. coli) (UniProt P0AE06); test: SPR
[2] = molecular target: the molecule itself; test: SEC-MALS
[3] = molecular target: the molecule itself; test: SEC-MALS; remark: listed apart in the source
[4] = molecular target: the molecule itself; test: SDS-PAGE under reducing and non-reducing conditions

**Q.** What does the source list for “TolC, outer membrane channel (from UniProt P02930 23-493) (natural protein)”?
**A.** KD1 (slow complexes, two populations of AcrA) [1]: 0.01 µM; KD2 (fast complexes, two populations of AcrA) [1]: 0.11 µM

**Q.** How did the KD1 (slow complexes, two populations of AcrA) [1] turn out when “TolC^YFRE, TolC mutant containing Y362F and R367E substitutions (open variant) (from UniProt P02930 23-493) (natural protein)” was run?
**A.** 0.02 µM

**Q.** And the KD2 (fast complexes, two populations of AcrA) [1]?
**A.** 6.7 µM

B1: AcrB^S1043C biotinylated at C1043 (Cys1043^bio), the immobilized AcrB (natural protein)
chain: MPNFFIDRPIFAWVIAIIIMLAGGLAILKLPVAQYPTIAPPAVTISASYPGADAKTVQDTVTQVIEQNMNGIDNLMYMSSNSDSTGTVQITLTFESGTDADIAQVQVQNKLQLAMPLLPQEVQQQGVSVEKSSSSFLMVVGVINTDGTMTQEDISDYVAANMKDAISRTSGVGDVQLFGSQYAMRIWMNPNELNKFQLTPVDVITAIKAQNAQVAAGQLGGTPPVKGQQLNASIIAQTRLTSTEEFGKILLKVNQDGSRVLLRDVAKIELGGENYDIIAEFNGQPASGLGIKLATGANALDTAAAIRAELAKMEPFFPSGLKIVYPYDTTPFVKISIHEVVKTLVEAIILVFLVMYLFLQNFRATLIPTIAVPVVLLGTFAVLAAFGFSINTLTMFGMVLAIGLLVDDAIVVVENVERVMAEEGLPPKEATRKSMGQIQGALVGIAMVLSAVFVPMAFFGGSTGAIYRQFSITIVSAMALSVLVALILTPALSATMLKPIAKGDHGEGKKGFFGWFNRMFEKSTHHYTDSVGGILRSTGRYLVLYLIIVVGMAYLFVRLPSSFLPDEDQGVFMTMVQLPAGATQERTQKVLNEVTHYYLTKEKNNVESVFAVNGFGFAGRGQNTGIAFVSLKDWADRPGEENKVEAITMRATRAFSQIKDAMVFAFNLPAIVELGTATGFDFELIDQAGLGHEKLTQARNQLLAEAAKHPDMLTSVRPNGLEDTPQFKIDIDQEKAQALGVSINDINTTLGAAWGGSYVNDFIDRGRVKKVYVMSEAKYRMLPDDIGDWYVRAADGQMVPFSAFSSSRWEYGSPRLERYNGLPSMEILGQAAPGKSTGEAMELMEQLASKLPTGVGYDWTGMSYQERLSGNQAPSLYAISLIVVFLSLAALYESWSIPFSVMLVVPLGVIGALLAATFRGLTNDVYFQVGLLTTIGLSAKNAILIVEFAKDLMDKEGKGLIEATLDAVRMRLRPILMTSLAFILGVMPLVISTGAGSGAQNAVGTGVMGGMVTATVLAIFFVPVFFVVVRRRFSRKNEDIEHCHTVDHH
modifications: maleimide-PEG2-biotin on C1043
**Q.** For B1, which “stoichiometry N” value [2] is on record?
**A.** 2 and 3

B2: AcrA^l, native lipid-modified AcrA (natural protein)
chain: CDDKQAQQGGQQMPAVGVVTVKTEPLQITTELPGRTSAYRIAEVRPQVSGIILKRNFKEGSDIEAGVSLYQIDPATYQATYDSAKGDLAKAQAAANIAQLTVNRYQKLLGTQYISKQEYDQALADAQQANAAVTAAKAAVETARINLAYTKVTSPISGRIGKSNVTEGALVQNGQATALATVQQLDPIYVDVTQSSNDFLRLKQELANGTLKQENGKAKVSLITSDGIKFPQDGTLEFSDVTVDQTTGSITLRAIFPNPDHTLLPGMFVRARLEEGLNPNAILVPQQGVTRTPRGDATVLVVGADDKVETRPIVASQAIGDKWLVTEGLKAGDRVVISGLQKVRPGVQVKAQEVTADNNQQAASGAQPEQSKS
modifications: N-terminal lipid modification at C25
**Q.** With B2 as the molecule, how does the “stoichiometry N” value [3] read?
**A.** 2

B3: AcrA^G363C, lipid-modified AcrA with the G363C substitution in the MP domain (natural protein)
chain: CDDKQAQQGGQQMPAVGVVTVKTEPLQITTELPGRTSAYRIAEVRPQVSGIILKRNFKEGSDIEAGVSLYQIDPATYQATYDSAKGDLAKAQAAANIAQLTVNRYQKLLGTQYISKQEYDQALADAQQANAAVTAAKAAVETARINLAYTKVTSPISGRIGKSNVTEGALVQNGQATALATVQQLDPIYVDVTQSSNDFLRLKQELANGTLKQENGKAKVSLITSDGIKFPQDGTLEFSDVTVDQTTGSITLRAIFPNPDHTLLPGMFVRARLEEGLNPNAILVPQQGVTRTPRGDATVLVVGADDKVETRPIVASQAIGDKWLVTEGLKAGDRVVISCLQKVRPGVQVKAQEVTADNNQQAASGAQPEQSKS
modifications: N-terminal lipid modification at C25; disulfide bond between the two chains
**Q.** How did the “stoichiometry N” value [4] turn out when B3 was run?
**A.** 2
